Here are results for 6 molecules from PMC3859622, “Functional Characterization of ECP-Heparin Interaction: A Novel Molecular Model” (PLoS ONE, 2013).

On the set-up of data set [1]: method as in PMID 9357326. As to conditions: relative to EDN; cited from earlier work.
Data set [2] concerns yeast tRNA. Kind of data set: Ribonuclease activity, yeast tRNA digestion. In kind it is biochemical. The note with it: yeast tRNA cleavage, 37 °C, 15 min, pH 7.4. As to the method: Ribonuclease activities of recombinant wtECP and mutant ECPs were measured using yeast tRNA (Invitrogen, USA) digestion method, using bovine pancreatic RNaseA (USB, USA) as positive control. Three hundred microliters of 100 mM sodium phosphate buffer, pH 7.4, and 500 μl diethylpyrocarbonate-ddH2O were mixed with 50 μl 0.05 μM RNaseA and 5 μM wtECP or each mutant ECP separately. Ten microliters of 5 mg/ml yeast tRNA was added and incubated at 37 °C for 0, 5, 10 and 15 min. Ice-cold 500 μl stop solution (1:1, v/v, 40 mM lanthanum nitrate and 6% perchloric acid) was added and shaken for 10 min to stop reaction. Intact yeast tRNA was […] by centrifugation at 16,100 × g at 25 °C for 5 min. One hundred microliters of supernatant in each tube was placed on to a 96-well plate. The amount of soluble tRNA in supernatant was determined by A260 nm. The calculation has been described previously.

Data set [3] has as its system yeast tRNA. More on the design: method as in PMID 9649619. The note with it: cited from earlier work.

Values joined by “and” are separate entries in the source; they are usually repeats but may differ in a detail not shown here. Identical values can stand only once.

B1: wtECP: recombinant wild type human eosinophil cationic protein with C-terminal His6 tag, refolded from E. coli (protein, UniProt P12724 28-160, looked up)
Eosinophil cationic protein: RPPQFTRAQWFAIQHISLNPPRCTIAMRAINNYRWRCKNQNTFLRTTFANVVNVCGNQSIRCPHNRTLNNCHRSRFRVPLLHCDLINPGAQNISNCTYADRPGRRFYVVACDNRDPRDSPRYPVVPVHLDTTI
modifications: C-terminal His6 tag
Turning to B1, the “Ribonucleolytic activity of EDN” value in data set [1] is 1%. Besides, the RNase activity in data set [2] was 0.0049 soluble tRNA/pmol and 0.0049 ± 0.0001 soluble tRNA/pmol.

B2: R105A: single mutant recombinant ECP, Arg105 to Ala (protein, UniProt P12724 28-160, looked up, variant R105A)
Eosinophil cationic protein: RPPQFTRAQWFAIQHISLNPPRCTIAMRAINNYRWRCKNQNTFLRTTFANVVNVCGNQSIRCPHNRTLNNCHRSRFRVPLLHCDLINPGAQNISNCTYADRPGRAFYVVACDNRDPRDSPRYPVVPVHLDTTI
For B2, the RNase activity in data set [2] is 0.0032 soluble tRNA/pmol and 0.0032 ± 0.0002 soluble tRNA/pmol.

B3: H64A: single mutant recombinant ECP, His64 to Ala (protein, UniProt P12724 28-160, looked up, variant H64A)
Eosinophil cationic protein: RPPQFTRAQWFAIQHISLNPPRCTIAMRAINNYRWRCKNQNTFLRTTFANVVNVCGNQSIRCPANRTLNNCHRSRFRVPLLHCDLINPGAQNISNCTYADRPGRRFYVVACDNRDPRDSPRYPVVPVHLDTTI
With B3, the RNase activity in data set [2] is 0.0068 soluble tRNA/pmol and 0.0068 ± 0.0001 soluble tRNA/pmol.

B4: Q40A: single mutant recombinant ECP, Gln40 to Ala (protein, UniProt P12724 28-160, looked up, variant Q40A)
Eosinophil cationic protein: RPPQFTRAQWFAIQHISLNPPRCTIAMRAINNYRWRCKNANTFLRTTFANVVNVCGNQSIRCPHNRTLNNCHRSRFRVPLLHCDLINPGAQNISNCTYADRPGRRFYVVACDNRDPRDSPRYPVVPVHLDTTI
B4: the RNase activity in data set [2] is 0.0043 soluble tRNA/pmol and 0.0043 ± 0.0001 soluble tRNA/pmol.

B5: Q40A/H64A: double mutant recombinant ECP, Gln40 and His64 to Ala (protein, UniProt P12724 28-160, looked up, variant Q40A H64A)
Eosinophil cationic protein: RPPQFTRAQWFAIQHISLNPPRCTIAMRAINNYRWRCKNANTFLRTTFANVVNVCGNQSIRCPANRTLNNCHRSRFRVPLLHCDLINPGAQNISNCTYADRPGRRFYVVACDNRDPRDSPRYPVVPVHLDTTI
As for B5, the RNase activity in data set [2] is 0.0056 soluble tRNA/pmol and 0.0056 ± 0.0002 soluble tRNA/pmol.

B6: Bovine RNase A: bovine pancreatic RNaseA (USB), positive control (protein, UniProt P61823 27-150, looked up)
Ribonuclease pancreatic: KETAAAKFERQHMDSSTSAASSSNYCNQMMKSRNLTKDRCKPVNTFVHESLADVQAVCSQKNVACKNGQTNCYQSYSTMSITDCRETGSSKYPNCAYKTTQANKHIIVACEGNPYVPVHFDASV
For the molecule B6, the “RNase activity, reported number” value in data set [3] is listed as 1.208 soluble tRNA/pmol. Also, the RNase activity in data set [2] is recorded as 1.1710 ± 0.0131 soluble tRNA/pmol; in data set [2] (listed as bovine RNaseA), 1.171 soluble tRNA/pmol.
